The supplement of paper PMC10724198
± gives the standard deviation of the averaged measurements.

System: Saccharomyces cerevisiae
Assay: protein stability index of tFT-peptide fusion (C-terminal peptide) (PSI (0-1 scale)); higher = more stable (slower turnover)
Details: temperature: 30 C
Procedure: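 MPS profiling in S. cerevisiae of the yeast C-terminome library: the last 12 aa of each annotated ORF are fused to the C-terminus of a sfGFP-mCherry timer, after a GGGS linker. Cells are FACS-sorted into 8 mCherry/sfGFP bins and deep-sequenced. PSI runs from 0 (unstable) to 1 (stable); wild type and das1Δ backgrounds, two technical replicates each.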

[1] = genetic background: das1 deletion

Sequence	protein stability index [1]	protein stability index (genetic background: wild type)
KDSKEYFKNANN [TSA2 C-terminal 12 aa]	0.714 ± 0.022	0.716 ± 0.02
SSSLSLESFMKS [SNM1 C-terminal 12 aa]	0.748 ± 0.036	0.725 ± 0.019
WHKHKTSSDKNI [YDR261C-D C-terminal 12 aa]	0.733 ± 0.02	0.749 ± 0.012
KNLQNELEKNNA [RTN1 C-terminal 12 aa]	0.6887 ± 0.0022	0.6647 ± 0.0021
KTVSPNWEVKEL [CYM1 C-terminal 12 aa]	0.6828 ± 0.0036	0.702 ± 0.019
NGEIMTCWEWKE [HEH2 C-terminal 12 aa]	0.691 ± 0.034	0.686 ± 0.019
NEERINSKIFKS [RCF2 C-terminal 12 aa]	0.716 ± 0.043	0.69629 ± 0.00022
LSSVKVRQLRNM [RBH2 C-terminal 12 aa]	0.681 ± 0.021	0.205 ± 0.0043
FYHVFDEPRYYL [CWH43 C-terminal 12 aa]	0.7524 ± 0.0054	0.7087 ± 0.0018
GASAEDNTHPDE [NAB6 C-terminal 12 aa]	0.694 ± 0.011	0.681 ± 0.046
SDQKGGRSVSTS [YLR001C C-terminal 12 aa]	0.6896 ± 0.0021	0.734 ± 0.017
DKVPVHYPPVVE [SYM1 C-terminal 12 aa]	0.686 ± 0.028	0.709 ± 0.045
KERTHLFQLIRK [EFM6 C-terminal 12 aa]	0.699 ± 0.0076	0.6923 ± 0.0018
HAGTRPVLLLQK [YKL053W C-terminal 12 aa]	0.694 ± 0.016	0.674 ± 0.04
VGFAVMALMDEH [YKE4 C-terminal 12 aa]	0.703 ± 0.052	0.7046 ± 0.0017
INDNNENASNSV [GLD1 C-terminal 12 aa]	0.6943 ± 0.0069	0.676 ± 0.024
RAGSHSVGLLPM [UIP5 C-terminal 12 aa]	0.6976 ± 0.0019	0.6835 ± 0.0029
PPPPSRKCGTPK [LDB17 C-terminal 12 aa]	0.713 ± 0.038	0.7238 ± 0.0025
RLAKKVARRNAD [RPS24A C-terminal 12 aa]	0.693 ± 0.0097	0.683 ± 0.024
PADIATDHDITM [TAF8 C-terminal 12 aa]	0.717 ± 0.013	0.685 ± 0.0044
SALILMYKGFGL [UBP6 C-terminal 12 aa]	0.664 ± 0.022	0.683 ± 0.015

Sequence	protein stability index [1]	protein stability index (genetic background: wild type)
TGLLRGSQKTQD [RPL2A C-terminal 12 aa]	0.7017 ± 0.0061	0.672 ± 0.0086
YTNLIASKVKKQ [YKL177W C-terminal 12 aa]	0.714 ± 0.036	0.6504 ± 0.0044
LRIVACNSKKSE [TOA2 C-terminal 12 aa]	0.673 ± 0.027	0.649 ± 0.022
AKCGEWTPELSS [CPR2 C-terminal 12 aa]	0.71451 ± 0.00067	0.731 ± 0.014
VDQLFEKASVLY [RPN6 C-terminal 12 aa]	0.68 ± 0.017	0.721 ± 0.03
QIVGLLKLLASI [PEX15 C-terminal 12 aa]	0.68 ± 0.036	0.405 ± 0.038
KEWKEKEKTGKQ [MPC1 C-terminal 12 aa]	0.728 ± 0.012	0.702 ± 0.022
KFQDVLDNFLQG [ETT1 C-terminal 12 aa]	0.713 ± 0.019	0.685 ± 0.01
EGGDLEYQHVKI [YCR043C C-terminal 12 aa]	0.691 ± 0.0077	0.682 ± 0.03
CMESNPPVFMAI [YNL296W C-terminal 12 aa]	0.709 ± 0.035	0.713 ± 0.021
HNLHSYEKRLHN [IMD2 C-terminal 12 aa]	0.7234 ± 0.0046	0.742 ± 0.066
LVSNSDTNIVWP [YMR247W-A C-terminal 12 aa]	0.68696 ± 0.00059	0.712 ± 0.015
TSILEDVDGDDE [YOL050C C-terminal 12 aa]	0.706 ± 0.041	0.669 ± 0.026
NNDDSANDLIDR [CCH1 C-terminal 12 aa]	0.649 ± 0.013	0.681 ± 0.02
LSTWDARTPILD [GPI2 C-terminal 12 aa]	0.705 ± 0.0016	0.703 ± 0.0087
KLIHIPIRYVIV [SSS1 C-terminal 12 aa]	0.424 ± 0.03	0.3647 ± 0.00092
NENLSNELQPSL [AME1 C-terminal 12 aa]	0.678 ± 0.009	0.759 ± 0.072
IMALIAESGDDF [ERV14 C-terminal 12 aa]	0.673 ± 0.021	0.7007 ± 0.0027
KGATIKEIVLND [ATH1 C-terminal 12 aa]	0.69826 ± 0.00054	0.672 ± 0.012
QDELDAMKEMGF [CSM3 C-terminal 12 aa]	0.698 ± 0.023	0.699 ± 0.049
FCHGAEDAWNIL [EMG1 C-terminal 12 aa]	0.7275 ± 0.0017	0.712 ± 0.012

Sequence	protein stability index [1]	protein stability index (genetic background: wild type)
FRSQRLHMDSKP [BUD27 C-terminal 12 aa]	0.727 ± 0.018	0.6682 ± 0.0053
KTVSDEEYAYIV [APM2 C-terminal 12 aa]	0.6901 ± 0.0029	0.707 ± 0.011
KALQKAMGSVQF [YEL1 C-terminal 12 aa]	0.702 ± 0.018	0.687 ± 0.03
FEDCCRWNEKQG [HIS6 C-terminal 12 aa]	0.668 ± 0.022	0.694 ± 0.016
DNPETKNGRENK [ECM10 C-terminal 12 aa]	0.675 ± 0.016	0.6426 ± 0.00097
NFEKPCLIQDGK [FMP48 C-terminal 12 aa]	0.717 ± 0.051	0.706 ± 0.033
AGEKTVAELMEN [PYP1 C-terminal 12 aa]	0.679 ± 0.025	0.687 ± 0.022
APRLRLEDIFQQ [RET1 C-terminal 12 aa]	0.752 ± 0.011	0.7 ± 0.052
TKCEEEIKNLSK [YME2 C-terminal 12 aa]	0.698 ± 0.022	0.711 ± 0.036
NDLITYLKKACE [CYC1 C-terminal 12 aa]	0.68 ± 0.01	0.683 ± 0.011
HLYDHILEKMVK [CNM67 C-terminal 12 aa]	0.694 ± 0.032	0.7 ± 0.018
VFISTVLLAIVW [YAL065C C-terminal 12 aa]	0.196 ± 0.015	0.192 ± 0.0067
IHYKMNENSTNQ [SYO1 C-terminal 12 aa]	0.689 ± 0.0075	0.68 ± 0.04
LLILLVLFSKFK [VTI1 C-terminal 12 aa]	0.295 ± 0.02	0.302 ± 0.0073
HEWKTSINAIST [SWT1 C-terminal 12 aa]	0.6881 ± 0.0024	0.727 ± 0.079
NINGTTAAVDVN [PAP1 C-terminal 12 aa]	0.661 ± 0.0093	0.658 ± 0.01
GEASTGNRLSFK [BNI1 C-terminal 12 aa]	0.719 ± 0.013	0.72 ± 0.022
TFKPIYLWALDL [SPP382 C-terminal 12 aa]	0.6938 ± 0.0043	0.6753 ± 0.0057
QNYPIVSFSRVI [OSW1 C-terminal 12 aa]	0.7236 ± 0.0058	0.685 ± 0.012
GHLSSSRRRLRT [SUV3 C-terminal 12 aa]	0.7217 ± 0.0043	0.7 ± 0.034
VAKAEKLAAEAN [ATP2 C-terminal 12 aa]	0.684 ± 0.03	0.705 ± 0.022

Sequence	protein stability index [1]	protein stability index (genetic background: wild type)
GGIRKISGSIKK [CDC14 C-terminal 12 aa]	0.71 ± 0.01	0.667 ± 0.037
IQINKGDNIFKN [YTM1 C-terminal 12 aa]	0.688 ± 0.026	0.732 ± 0.025
KHGLNDWIVGQK [YPL225W C-terminal 12 aa]	0.712 ± 0.021	0.745 ± 0.035
RKFSSSTNLAKF [TOS8 C-terminal 12 aa]	0.779 ± 0.039	0.81 ± 0.012
KIQWDIDPQLDG [SSY5 C-terminal 12 aa]	0.743 ± 0.033	0.723 ± 0.082
PFYRTSAESIDF [SLM5 C-terminal 12 aa]	0.719 ± 0.022	0.706 ± 0.034
KHKNILSFNDNT [YER188C-A C-terminal 12 aa]	0.731 ± 0.015	0.747 ± 0.068
GDLVNAIMSLSK [EGD2 C-terminal 12 aa]	0.696 ± 0.013	0.696 ± 0.025
NYGQYSSFWSLL [YOR055W C-terminal 12 aa]	0.765 ± 0.019	0.754 ± 0.017
ADWKAQRGEDGK [PNG1 C-terminal 12 aa]	0.67376 ± 7.2e-05	0.703 ± 0.014
EYIVNVNEYGHD [YOL153C C-terminal 12 aa]	0.6799 ± 0.0043	0.678 ± 0.0079
NILPMTYLLKKK [DPI34 C-terminal 12 aa]	0.697 ± 0.049	0.6405 ± 0.0054
FDTSAQSDRKHS [DCV1 C-terminal 12 aa]	0.719 ± 0.011	0.692 ± 0.018
RRLKNKQRTRFQ [YNR021W C-terminal 12 aa]	0.7264 ± 0.0013	0.698 ± 0.023
KHKNILFFNHNT [YJR162C C-terminal 12 aa]	0.725 ± 0.015	0.199 ± 0.0036
IHRVIKNATPVA [PEX28 C-terminal 12 aa]	0.624 ± 0.027	0.649 ± 0.026
VHDDSRCYTHFY [BNI4 C-terminal 12 aa]	0.7313 ± 0.0033	0.726 ± 0.047
IKNSSLAVLHST [YKL162C C-terminal 12 aa]	0.705 ± 0.021	0.205 ± 0.019
EAELEEDWGMYG [YBR062C C-terminal 12 aa]	0.7114 ± 0.0068	0.7097 ± 0.0017
